The values that follow come from publication doi:10.1101/2024.05.01.590489 (bioRxiv, 2024).

B1: mAb3-6 (antibody, V domains shown)
VH: EVQLVESGGGLVQPGGSLRLSCSASGFHFSSYEMNWVRQAPGKGLEWVSYISSSGTYIDYADSVKGRFTISRDNPANSLYLQMYSLRAEDTAVYYCARRLWFGELPYSYYYGMDVWGQGTTVTVSS
VL: ALTQPASVSGSPGQSITISCTGTSSDIGGYNYVSWYQQHPGKAPELLIFDVSNRPSGVSNRFSGSKSGNTASLTISGLQAEDEADYHCCSYTRTSTVIFGGGTKLTVL
B2: mAb3-2 (antibody, V domains shown)
VH: EVQLLESGGGLVQPGGSLRLSCAASGFTFSNYAMSWVRQAPGKGLEWVSLISGSGGSIDYADSVKGRFTISRDNSKNTLYLQMDSLRAEDTAVYYCSKDPIYYDLSGYYAGRIYYFDYWGQGTLVTVSS
VL: EIVMTQSPATLSVSPGDTATLSCRASHSVSRDLAWYQQKPGQAPRLLIYDASTRATGIPARFSGSGSGTEFTLTISSLQSEDFAVYYCQQYINWVTFGPGTKVDIE
B3: mAb3-7 (antibody, V domains shown)
VH: QVQLQESGPGLVKPSETLSLTCTVSGGSISNYYWNWIRQPPGKGLEWIGYVHYSGSTNYNPSLKSRVSVSVDTSKNQFSLNLGSVTAADTAVYYCARQSRSYYNEVITDPKYNFDYWGQGTLVTVSS
VL: QSALTQPASVSGSPGQSITISCTGTSSDVGGYDYVSWYQQHPGKAPKLMIYDVSNRPSGVSNRFSGSKSGNTASLTISGLQAEDEADYYCSSYTSISTLVFGGGTKLTVL
B4: mAb2-4 (antibody, V domains shown)
VH: EVQLLESGGGLVHPGGSLRLSCAASGFPFSNFAMSWVRQAPGKGLEWVSTISGSSGSTYYADSVRGRFTISRDYSKNTVYLEMNSLRADDTAIYYCAKDRMITFGEVIVKHYDAFEIWGQGTRVAV
VL: DIQMTQSPSSLSASVGDRVTITCRASQTISTNVNWYQQKPGKAPKLLIYAASSLQSGVPSRFSGSGSGTDFTLTISSLQPEDFATFYCQQSYSAPLTFGEGTKV
B5: mAb2-6 (antibody, V domains shown)
VH: VQLLESGGALVQPGGSLRLSCAASGFSFSNYAMSWVRQAPGKGLEWVSTISASGGTTYFADSVKGHFTISRDNSKNTLYLQMDSLRAEDTAVYYCAKDPNYYDLSGYFLGGYYFDYWGQGTLVTVSS
VL: EIVLTQSPGTLSLSPGERATLSCRASQSVRSSYLAWYQQKPGQAPRLLIYGASSRATDIPDRFSGSGSGTDFTLTISRLEPEDFAVYYCQQYGTSPAFGGGTKV
B6: mAb3-1 (antibody, V domains shown)
VH: EVQLLESGGGLVQPGGSLRLSCEASGFTFSRYPMNWVRQAPGKGLEWVSHISASGGTTYYADTVKGRFSISRDNSKNTLYLEMNSLRAEDTAIYFCAKDYPPDEVTMIVVGMPYFDSWGLGTLVSVSS
VL: not shown
B7: mAb3-5 (antibody, V domains shown)
VH: EVQLVESGGGLVQPGGSLRLSCAASGFTFSNYGMNWVRQAPGKGLEWVSYISSGGTIYYADSVKGRFTISRDNAKNSVYLQMNSLRAEDTAVYYCARDPAYCGDDCYTIPAHYFDYWGQGTPVTVS
VL: DIQMTQSPSSLSASVGDRVTITCRTSQSISRYLNWYQQKPGKAPKLLIYAASSLQSGVPSRFTGSGSGTDFTLTISSLQPEDFATYYCQQSYSIPPVTFGQGTRVD
B8: mAb2-5 (antibody, V domains shown)
VH: EVQLVESGGGLVKPGGSPRLSCAASGFNFGSYSMNWVRQAPGKGLEWVSSISSSSSYIYYADSVKGRFTISRDNAKHSLYLQVNSLRAEDTAVYYCARDPTTYGYNSAWDKKGWYFDLWGRGTLLTVS
VL: VLTQPPSVSAAPGQMVTISCSGSSSNIGNDYISWYQQLPGTAPKLLIYDNNERPSGIPDRFSGSKSGTSATLGITGVQTGDEADYYCGTWDSSLSAWVFGEGTKLTVV
B9: mAb3-3 (antibody, V domains shown)
VH: QVQLQESGPGLVKSSETLSLTCTVSGESISSSSHYWGWIRQPPGKGLEFLGNVYYLGSTYYNPSLESRVTILLDTSKNQFSLKVNSVTVADTAVYYCARHGAGSYSGLFFDYWGQGARVIVSS
VL: DIQMTQSPSFVSASVGDRVNITCRASQGINSWLAWYQQKPGKAPKLLIYSASSLQSGVPSRFSGSGSGTDFTLTISTLQPEDFATYYCQQANSFPYTFGQGTKVD
B10: mAb3-4 (antibody, V domains shown)
VH: AVESGGGLVKPGGPLRLSCAASGFSLSDNYMTWIRQAPGKGLEWVSYISSSGSFINYADSVKGRFTISRDNAKNSLYLQMNSLRAEDTAVYYCARVLSSGGLTTSWRALWYFDVWGRGTLVTVS
VL: TVVTQEPSFSVSPGGTVTLTCGLTSGSVSTSYYPSWYQQTPGQTPRTLIYSTNIRSSGVPDRFSGSILGNKAALTITGAQADDECDYYCVLYMGSGIWVFGGGTKLTVL
B11: mAb2-3 (antibody, V domains shown)
VH: VQLVESGGGLVKPGGSLRLSCATSGFTFSDYYMSWIRQAPGKGLEWVSYISSSGSTIYYADSVKGRFTMSRDNAKNSLFLRMNSLRAEDTAVYYCARDQITVDREVIRAHYYYGMDVWGQGTTVTVS
VL: DIQMTQSPSSVSASVGDRVTITCRASQGINSYLAWYQQKPGKAPKLLIYAASSLESGVPSRFSGSGSGTDFTLTISSLQPEDFATYYCQQANSFPLTFGGGTKVDI

For the assay, the target named is AAV9 capsid (adeno-associated virus serotype 9 (AAV9), UniProt Q6JC40). The assay is described as follows: far-Western, overlay or dot blot.
B1: the binding result is listed as “binds”.

As for B2, the binding result is “binds”.

As for B3, the binding result was “binds”.

With B4, the binding result is recorded as “binds”.

For B5, the binding result was “binds”.

On to B6, for which the binding result is listed as “binds”.

Take B7: the binding result is listed as “binds”.

With B8, the binding result is on record as “binds”.

For B9, the binding result is reported as “binds”.

As to B10, the binding result is recorded as “binds”.

As for B11, the binding result was “binds”.
